Source: publication doi:10.1101/479162v2
Substitutions are numbered along the chain they refer to. In names and notes the source's numbering stands.

B1: SpAS1 (arylsulfatase 1 from Silicibacter pomeroyi DSS-3), purified (Ruegeria pomeroyi DSS-3) (protein)
chain: MTQNRNILWIMCDQLRFDYLSCYGHERLNTPNIDKLAKRGVRFTNAYVQATVCGPSRMSAYTGRYVRSHGSTQNGIPLRVGEPTLGDHLRDVGMRNVLIGKTHMRPDLDGMKRLGIDPDSEIGARVGEGGFDAFDRDDGVHPTGYRKKEPAYNDYLRHAGFQAENPWEFWANSAEGKGGENQSGWLLTHADKPARVPEEHSETAYMTRRAMEFMEAAEKDGRPWCAHLSYIKPHWPYIVPAPYHDMFGPDDVKPAVRSDEELKAAHPLFKAMTEEVYSRNFARDEVREKVIPAYMGLIKQIDDQLGQLFAFMQERGLDENTMIVFTADHGDYLGDHWMGEKYLFYEAAAKVPLIIYDPSDKADATRGTVSDALVEMIDLAPTFVDYAGGVPPMHILEGKSLLPLLHDDDSSWDRQYVFSELDYSNLPARLKLGRDIQDCRATMVFDGRYKLVEVMGFAPILFDLEVDPDELKDLGRDPSAEEVRQRLTSALDAWHRNTRQRITKSDAAYRALDPVLRESDPDLMAGVIIGYWDEDEVEAEKRRIARILGENS
B2: SpAS1 (arylsulfatase 1 from Silicibacter pomeroyi DSS-3), purified (Ruegeria pomeroyi DSS-3; K147E/M111T) (protein)
chain: B1 chain with M111T, K147E
B3: SpAS1 (arylsulfatase 1 from Silicibacter pomeroyi DSS-3), purified (Ruegeria pomeroyi DSS-3; R429Q) (protein)
chain: B1 chain with R429Q

Experiments:
Conditions in all cases: KSI (substrate inhibition) also fitted
[1] = substrate: O=C1OC2(c3ccc(OS(=O)(=O)O)cc3Oc3cc(OS(=O)(=O)O)ccc32)c2ccccc21; assay: fluorescence, Michaelis-Menten kinetics of purified enzyme; assay type: biochemical, Ruegeria pomeroyi
purified protein [2] = substrate: O=[N+]([O-])c1ccc(OS(=O)(=O)O)cc1; assay: purified protein
purified protein [3] = substrate: O=C1OC2(c3ccc(OS(=O)(=O)O)cc3Oc3cc(OS(=O)(=O)O)ccc32)c2ccccc21; assay: purified protein

Protein | Km [1] | kcat [1] | Km (purified protein [2]) | kcat (purified protein [2]) | Km (purified protein [3]) | kcat (purified protein [3])
B1 | 4.5 ± 0.5 mM | 0.116 ± 0.004 s⁻¹ | 7.1 ± 1.7 mM | 34 ± 5 s⁻¹ |  | 
B2 |  |  | 3.4 ± 0.3 mM | 100 ± 4 s⁻¹ | 2.4 ± 0.2 mM | 0.074 ± 0.002 s⁻¹
B3 | 1.0 ± 0.1 mM | 0.77 ± 0.04 s⁻¹ | 7.3 ± 1.5 mM | 26 ± 3 s⁻¹ |  | 
